Patent US20260008817A1, “CYCLIC PEPTIDE OR SALT THEREOF, AND USES THEREOF” (FUJIFILM Corporation, priority 2023, published 2026)
Positions of bridges follow the written chain, without caps; N, C: chain ends. No end group written: not given here. COCH2 = acetyl group that carries the bridge

Target: T1, Recombinant Human FGFR1 alpha (IIIc) Fc Chimera Protein (Homo sapiens, UniProt P11362)
T1 construct: purchased R&D systems 658-FR-050
Assay: ELISA binding affinity of enzymatically synthesized peptide to FGFR
Conditions: ELISA luminescence signal at 10 nmol/L peptide, SEQ ID NO: 239 standardized to 1; enzyme synthesis product
Method in brief: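 Cell-free PUREfrex-translated cyclic peptides (Myc/HiBiT-tagged, quantified by HiBiT luminescence) bound 3 h at room temperature to immobilized FGFR1α(IIIc)-Fc, detected with anti-Myc and chemiluminescence. FGFR-specific signal at 10 nmol/L normalized to a reference cyclic peptide and graded A–D.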

T1 sequence (P11362 with tags, fused parts or gaps limits assumed): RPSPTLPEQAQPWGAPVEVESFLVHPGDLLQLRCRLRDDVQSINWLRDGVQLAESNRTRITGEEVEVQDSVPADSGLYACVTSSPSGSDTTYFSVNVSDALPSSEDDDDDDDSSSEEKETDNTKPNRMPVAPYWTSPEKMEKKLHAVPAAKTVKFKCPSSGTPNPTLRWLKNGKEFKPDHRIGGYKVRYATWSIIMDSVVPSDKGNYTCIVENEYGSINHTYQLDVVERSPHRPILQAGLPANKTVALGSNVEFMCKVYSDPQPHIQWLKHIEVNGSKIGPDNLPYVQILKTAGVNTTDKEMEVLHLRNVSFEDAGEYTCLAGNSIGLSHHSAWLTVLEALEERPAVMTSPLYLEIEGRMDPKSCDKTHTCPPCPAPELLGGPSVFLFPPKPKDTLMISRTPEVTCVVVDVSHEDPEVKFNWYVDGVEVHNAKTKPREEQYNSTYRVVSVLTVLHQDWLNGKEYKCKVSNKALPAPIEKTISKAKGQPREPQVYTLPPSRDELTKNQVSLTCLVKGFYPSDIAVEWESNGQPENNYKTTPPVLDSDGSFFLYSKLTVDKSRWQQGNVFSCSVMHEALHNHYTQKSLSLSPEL

Substance	Evaluation result of binding affinity to FGFR
267 (DCIWQWTPTKSFQKL; Description of Artificial Sequence: Cyclic peptide) [compound 267]	A (0.7 or more)
184 (ICVYTFDAHAHSLWAALTK(COCH2)I; thioether 2-19 (inferred)) [compound 184]	C (0.1 or more and less than 0.5)
300 (ICVYTFDAHAHSLHDALNK(COCH2)V; thioether 2-19 (inferred)) [compound 300]	A (0.7 or more)
83 (ICVYTFVAHAHSLHAALTK(COCH2)I; thioether 2-19 (inferred)) [compound 83]	C (0.1 or more and less than 0.5)
74 (ICVYTADAHAHSLHAALTK(COCH2)I; thioether 2-19 (inferred)) [compound 74]	C (0.1 or more and less than 0.5)
75 (ICVYTGDAHAHSLHAALTK(COCH2)I; thioether 2-19 (inferred)) [compound 75]	C (0.1 or more and less than 0.5)
216 (ICVYTFDAHAHSLHAALPK(COCH2)I; thioether 2-19 (inferred)) [compound 216]	C (0.1 or more and less than 0.5)
80 (ICVYTFAAHAHSLHAALTK(COCH2)I; thioether 2-19 (inferred)) [compound 80]	C (0.1 or more and less than 0.5)
284 (QCRITLLTIYQWKYAWHK(COCH2)E; thioether 2-18 (inferred)) [compound 284]	C (0.1 or more and less than 0.5)
288 (LCHLVFQFNPDTGKLWPK(COCH2)Y; thioether 2-18 (inferred)) [compound 288]	C (0.1 or more and less than 0.5)
42 (LCVYTFDAHAHSLHAALTK(COCH2)I; thioether 2-19 (inferred)) [compound 42]	A (0.7 or more)
240 (ACVYLFNWRATSYGKSLIK(COCH2)W; thioether 2-19 (inferred)) [compound 240]	A (0.7 or more)
168 (ICVYTFDAHAHSYHAALTK(COCH2)I; thioether 2-19 (inferred)) [compound 168]	A (0.7 or more)
283 (WCWLIPTPWPGVYQFSPK(COCH2)A; thioether 2-18 (inferred)) [compound 283]	B (0.5 or more and less than 0.7)
251 (TCWTAWQWFGHWVPFVAK(COCH2)T; thioether 2-18 (inferred)) [compound 251]	C (0.1 or more and less than 0.5)
172 (ICVYTFDAHAHSTHAALTK(COCH2)I; thioether 2-19 (inferred)) [compound 172]	B (0.5 or more and less than 0.7)
119 (ICVYTFDAHIHSLHAALTKI; Description of Artificial Sequence: Cyclic peptide) [compound 119]	C (0.1 or more and less than 0.5)
194 (ICVYTFDAHAHSLHIALTK(COCH2)I; thioether 2-19 (inferred)) [compound 194]	C (0.1 or more and less than 0.5)
317 (FCVYTFDAHAHSLHDALTK(COCH2)Q; thioether 2-19 (inferred)) [compound 317]	A (0.7 or more)
235 (ICVYTFDAHAHSLHAALTK(COCH2)R; thioether 2-19 (inferred)) [compound 235]	A (0.7 or more)
58 (ICFYTFDAHAHSLHAALTK(COCH2)I; thioether 2-19 (inferred)) [compound 58]	C (0.1 or more and less than 0.5)
138 (ICVYTFDAHAYSLHAALTKI; Description of Artificial Sequence: Cyclic peptide) [compound 138]	C (0.1 or more and less than 0.5)
190 (ICVYTFDAHAHSLEAALTK(COCH2)I; thioether 2-19 (inferred)) [compound 190]	A (0.7 or more)
